{"source": "patent US20210309978A1", "about": "“POLYNUCLEOTIDE SEQUENCE ENCODING A LOCAL SOURCED NOVEL ESTERASE” (ISTANBUL TEKNIK UNIVERSITESI, priority 2018, published 2021)", "molecules": {"B1": {"name": "enzyme: novel esterase (SEQ ID NO: 2, 260 amino acids) obtained by metagenomic method from the microflora of Ac1göl (protein)", "chain": "MTVDLNHLDTGGEGIPLVVIHGLLGSADNWRSHVKQWQQQCRVVAVDLRNHGRSPHADGMSYAAMAADLEALLDRLGIERAHLLGHSMGGKVAISVARLHPQRVASLIVADIAPQAYGHDHDAVFAGLRRVEQGQPGNRREADALLAEHVEERAVRLFLATNLERDDDGILRLRIGLDEIEGDYDAIMQAPAGEGSYDGPVLVLRGDRSPYVTDAMLPRLHQVLPQAQLVTLENAGHWLHAEQPEAFQAAVNDFLASLEA", "modifications": "Metagenomic Sequence"}}, "key": {"[1]": {"assay_type": "biochemical, microflora of Ac1göl (Aci Lake)", "description": "(§1) 6. Standard activity test: Activity has been measured based on the pNP measurement that is obtained by the hydrolysis of the paranitfrophenol (pNP) esters by the enzyme (Winkler and Stuckmann, 1979). The final concentration of the enzyme and substrate have been 1 μM and 1 mM respectively and absorbance measurements have been taken at 410 nm. The activity has been calculated by means of the below formula and one unit of activity has been defined as the enzyme amount which produces 1 μmol product in 1 minute.\n(§2) Activity (U/L)=[(ΔAbs/t)/(ε*d)]*106*Vt/Vs • ΔAbs=Absorbance change; t=time (minute); ε=extinction coefficient (M−1 cm−1); d=light path (cm); Vt=total reaction volume; Vs=enzyme volume used in reaction.\n(§3) The reaction has been carried out under different temperatures (5° C.-70° C.) in order to determine the optimum temperature in which the enzyme works efficiently, and the activity has been measured. In order to determine the thermal stability of the enzyme, the enzyme has been incubated for 20 minutes between 25° C.-80° C. temperature and the remaining activity has been measured according to standard tests."}, "[2]": {"assay_type": "biochemical, microflora of Ac1göl (Aci Lake)", "description": "as §1, §2\n(§4) 8. Measuring the activity and stability of the enzyme under different conditions: Reactions have been carried out in buffer solutions (50 mM citrate/phosphate buffer, pH 6; 50 mM Tris-HCl buffer, pH 7, 8 and 8.5; 50 mM glycine-NaOH buffer, pH 9, 9.5 and 10) having different pH values in order to determine the optimum pH value in which the enzyme works. Moreover, in order to measure the pH stability of the enzyme, the enzyme has been incubated for 24 hours before reaction in these buffer solutions and the activity value remaining at the end of the incubation has been calculated.", "remark": "listed apart in the source"}, "[3]": {"assay": "Effect of temperature on enzyme activity (standard pNP ester activity test)", "assay_type": "biochemical, microflora of Ac1göl (Aci Lake)", "description": "as §1, §2, §3"}, "[4]": {"assay": "Effect of pH on enzyme activity", "assay_type": "biochemical, microflora of Ac1göl (Aci Lake)", "description": "as §1, §2, §4"}}, "note": "“And” between values parts separate entries of the source, which are not always exact repeats. Equal values may be shown once.", "data": [{"molecule": "B1", "values": [{"measurement": "temperature up to which the enzyme maintained the stability", "setting": "[1]", "value": "up to 55 °C"}, {"measurement": "pH up to which the enzyme maintained its stability", "setting": "[2]", "value": "≤ 10", "unit": "pH"}, {"measurement": "temperature of best activity", "setting": "[3]", "value": 30, "unit": "°C"}, {"measurement": "Effect of temperature on activity, Activity (%)", "setting": "[3]; reaction at 5 ° C.", "value": "47% and 46.6 ± 6.1%"}, {"measurement": "Effect of temperature on activity, Activity (%)", "setting": "[3]; reaction at 10 ° C.", "value": "53.8 ± 7.4", "unit": "%"}, {"measurement": "Effect of temperature on activity, Activity (%)", "setting": "[3]; reaction at 15 ° C.", "value": "63% and 63.1 ± 5.1%"}, {"measurement": "Effect of temperature on activity, Activity (%)", "setting": "[3]; reaction at 20 ° C.", "value": "76.9 ± 4.4", "unit": "%"}, {"measurement": "Effect of temperature on activity, Activity (%)", "setting": "[3]; reaction at 25 ° C.", "value": "93.1 ± 6.3", "unit": "%"}, {"measurement": "Effect of temperature on activity, Activity (%)", "setting": "[3]; reaction at 30 ° C.", "value": "100 ± 4.8", "unit": "%"}, {"measurement": "Effect of temperature on activity, Activity (%)", "setting": "[3]; reaction at 35 ° C.", "value": "94.4 ± 1.5", "unit": "%"}, {"measurement": "Effect of temperature on activity, Activity (%)", "setting": "[3]; reaction at 40 ° C.", "value": "82.4 ± 2.8", "unit": "%"}, {"measurement": "Effect of temperature on activity, Activity (%)", "setting": "[3]; reaction at 45 ° C.", "value": "22.5 ± 0.8", "unit": "%"}, {"measurement": "Effect of temperature on activity, Activity (%)", "setting": "[3]; reaction at 50 ° C.", "value": "17.7 ± 0.3", "unit": "%"}, {"measurement": "Effect of temperature on activity, Activity (%)", "setting": "[3]; reaction at 55 ° C.", "value": "14.4 ± 4.5", "unit": "%"}, {"measurement": "Effect of temperature on activity, Activity (%)", "setting": "[3]; reaction at 60 ° C.", "value": "12.9 ± 2.9", "unit": "%"}, {"measurement": "Effect of temperature on activity, Activity (%)", "setting": "[3]; reaction at 65 ° C.", "value": "11.1 ± 4.2", "unit": "%"}, {"measurement": "Effect of temperature on activity, Activity (%)", "setting": "[3]; reaction at 70 ° C.", "value": "8.2 ± 0.8", "unit": "%"}, {"measurement": "pH value at which the enzyme worked best", "setting": "[4]", "value": 9, "unit": "pH"}, {"measurement": "The effect of pH on activity, Activity (%)", "setting": "[4]; pH 6", "value": "10.3 ± 4.1", "unit": "%"}, {"measurement": "The effect of pH on activity, Activity (%)", "setting": "[4]; pH 7", "value": "68.8 ± 8.2", "unit": "%"}, {"measurement": "The effect of pH on activity, Activity (%)", "setting": "[4]; pH 8", "value": "77.1 ± 6.8", "unit": "%"}, {"measurement": "The effect of pH on activity, Activity (%)", "setting": "[4]; pH 8.5", "value": "84 ± 5.2", "unit": "%"}, {"measurement": "The effect of pH on activity, Activity (%)", "setting": "[4]; pH 9", "value": "100 ± 1.3", "unit": "%"}, {"measurement": "The effect of pH on activity, Activity (%)", "setting": "[4]; pH 9.5", "value": "84.9 ± 1.5", "unit": "%"}, {"measurement": "The effect of pH on activity, Activity (%)", "setting": "[4]; pH 10", "value": "20 ± 8.1", "unit": "%"}]}]}
